# The supplement of paper PMC12042874
# ± gives the uncertainty stated by the source.
# Test: amyloid nucleation score (Sup35N fusion, yeast selection) (log enrichment); library NNK1; higher = more nucleation; inactive = no reads after selection
# Outline: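 For the nucleation score, DiMSum gave the log enrichment of output over input reads, centred on the mode score of non-aggregating sequences. Psi-negative yeast expressing Sup35N fused to peptides of 20 random codons were induced with 100 μM copper sulfate for 24 hours and grown 7 days at 30°C on medium lacking adenine and uracil. Input and output plasmid inserts were Illumina-sequenced, and sequences with under 100 input reads were excluded.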
row,Substance,amyloid nucleation score
1,WFTAFARK,3.41 ± 0.11
2,WFVNWWEYVL,0.042 ± 0.9
3,WGDLHRMVMISREVEPVSNI,-0.361 ± 0.78
4,WGICAVLHLMTIIGLIRVER,inactive
5,WGMIWCTIYGSVSNNNINLV,4.2 ± 0.053
6,WGTPLMV,0.31 ± 0.63
7,WHELRMCIVMDFLLMLQKMI,1.79 ± 0.44
8,WIFIGTIPILLIGDRRSANV,6.35 ± 0.066
9,WIFQY,1.43 ± 0.72
10,WINKYYDLN,0.472 ± 0.42
11,WITTMHNLHELNHRGPPPKL,-0.972 ± 1.8
12,WIVCCMWVYVLSLQL,-1.06 ± 0.4
13,WIVHCVEFALYGLGF,1.33 ± 0.79
14,WIWYFLGRGGYVACRSTKVW,0.016 ± 1.2
15,WKDRPRVCLFMLLNENGRQM,-0.831 ± 1.2
16,WKFALSLTRSDWAGHGPGHE,2.02 ± 0.16
17,WKGLRYLNFYFTE,4.52 ± 0.059
18,WKLPWALSRPVKYRYHEVGR,0.225 ± 0.43
19,WLDAVGMAAG,-0.989 ± 2.7
20,WLGVNDSLGFICEAVGWYGW,0.604 ± 0.63
21,WLGYMDMDNGARQNQYSETG,-0.942 ± 1.4
22,WLIQE,1.24 ± 0.71
23,WLLREIERMDLGDWQLELNI,-0.707 ± 0.83
24,WLSGYKSQMVK,-0.291 ± 0.78
25,WLSSLARIWSRQMREYNS,0.64 ± 0.44

row,Substance,amyloid nucleation score
1,WLTKSEN,-0.151 ± 0.27
2,WLVLTMS,0.086 ± 0.36
3,WMTHWVLSYTTNLLIWVHGW,0.005 ± 1.2
4,WMTTEIRRAIIEIRSVLWTS,0.33 ± 0.55
5,WMVSSVIRARGL,3.23 ± 0.12
6,WMYDSLDTSMTLANSHLQTL,-0.098 ± 0.51
7,WNFLFSCLMLGSSWMACDWQ,-0.305 ± 0.76
8,WNIGYNFVSDSLPPRNYFVE,-0.198 ± 0.37
9,WNISSTFGYGNHWLG,0.816 ± 0.52
10,WNMFGS,0.848 ± 0.29
11,WNNVGNTCMEPRSSLGCTLR,0.147 ± 0.51
12,WNQIAYNYRMLMLYFVTHYW,0.327 ± 0.5
13,WNRFRIMQLDITG,0.103 ± 0.22
14,WNSFTELRAHMLYHLKKIII,1.72 ± 0.22
15,WNSSFLHRLWEGSNLSARCC,inactive
16,WNTMWRHLGIYFKY,0.249 ± 0.38
17,WPCPVVRFLPWKNYISGYSF,0.392 ± 0.64
18,WPGFLSRWIRLRLDWSHEV,-1.06 ± 1.1
19,WQCDLNDLLVCTFSMLGYGR,-1.05 ± 1.7
20,WQFYTVL,-0.246 ± 0.31
21,WQLLKKCP,-0.576 ± 0.41
22,WQLYIEYFE,0.128 ± 0.36
23,WREGDI,-0.294 ± 1.2
24,WREYRLWDEG,-0.208 ± 0.36
25,WRGGKRHVAIFSISYSGTN,0.9 ± 0.57

row,Substance,amyloid nucleation score
1,WRGLPSNG,0.024 ± 0.36
2,WRILYRC,0.41 ± 0.34
3,WRLRCLRELV,-0.542 ± 0.65
4,WRQWKTLTARLTAMKA,-0.178 ± 0.33
5,WRSSHINLGGIFRLSHTIYC,-0.16 ± 0.38
6,WRSSHNDKMSY,-0.889 ± 0.46
7,WRSVPRASFRNWSLWDPLYT,0.453 ± 0.29
8,WRVHSNKRKLGSCLLTGTIF,0.656 ± 0.5
9,WSCLSSLRDLGNGGYMM,0.05 ± 0.62
10,WSKTSDDSVWWTWTDGIMFV,1.92 ± 0.46
11,WSLNERQNMLHLHRLTASLG,-0.088 ± 0.88
12,WSNTCRASYFRPCGCG,0.391 ± 0.39
13,WSPEMNVVKFTLFYNRSSRF,7.13 ± 0.078
14,WSRTNMIYNPSVGAIYRV,-0.021 ± 0.41
15,WSTFYLFLSLDWKNYT,inactive
16,WSVLCSFRSSSNQAFVFRVQ,-0.827 ± 0.77
17,WTFGLGSGVSGVSLERGPLG,-0.622 ± 1.7
18,WTIWVKDSLVPVCTSF,-1.03 ± 1.2
19,WTMNLLA,-0.048 ± 0.16
20,WTQAPDSAVGDGWGSNGSEA,0.013 ± 0.47
21,WTSMGTHTFSVRNRSGPHNG,1.22 ± 0.62
22,WTSSVFSIAHPVRYVRFYAV,0.307 ± 0.54
23,WTVMVNICLGHCRVLSQLVP,1.79 ± 0.24
24,WVAVRDMKGYRSRKKGQSWH,0.199 ± 0.5
25,WVHVCGGHCNWLICSMASNG,7.889 ± 0.061

row,Substance,amyloid nucleation score
1,WVTVPNTKKTNVLFGQWTIV,-0.379 ± 0.39
2,WVVIR,-0.369 ± 1.5
3,WVYMANRVEYRRASRNMS,inactive
4,WWNIEEM,-0.271 ± 0.24
5,WWSYRKCRALNRRFQFFSYR,inactive
6,WYEWSPFSSTWRSSIVLFNL,0.417 ± 0.56
7,YACESGMEIMHYRHMSGGVV,0.732 ± 1
8,YAEVGGLYSTSGVRRKNGGR,0.346 ± 0.32
9,YAFIG,-1.07 ± 1.5
10,YAFWFLCGYALP,2.92 ± 0.12
11,YAINMVYYV,1.16 ± 0.29
12,YAITRSAVICSNLALNMEC,2.09 ± 0.23
13,YAKVLTK,-0.104 ± 0.33
14,YALRFFDDYESAAGSVR,-0.454 ± 0.66
15,YARGMCWVRVWLNVQVSAWS,0.398 ± 0.53
16,YARWVGVSKVRNTQICNSMR,-0.543 ± 0.79
17,YATDCLLVSFGTSGECIHRL,inactive
18,YAYYLSDRVCFD,0.303 ± 0.4
19,YCDRDLKNKVLSNV,-0.132 ± 0.42
20,YCIGYGKICSYMRIVSSGLQ,0.901 ± 0.24
21,YCIPTVRVFL,0.575 ± 0.66
22,YCLQRQRRKGRSRSSMPEDE,1.52 ± 0.52
23,YCNGSLLRLAYMFGSGVSPR,0.935 ± 0.46
24,YCTLRESKPPMDGSM,-0.898 ± 1.7
25,YCTTAIGSKSLVDIWHAGCS,-0.412 ± 1.2

row,Substance,amyloid nucleation score
1,YCYEQVDSV,0.154 ± 0.42
2,YDFTDFPSPTFRYFVLIGNA,0.333 ± 0.54
3,YDHGRWDSTVSGLRDVMLDV,inactive
4,YDLTSFGFSVIVCSDDTRSG,-0.043 ± 0.75
5,YDRAWMLRPTLLWLTQTVVR,2.21 ± 0.13
6,YDVLEDSHELMMCFCVRGHW,-0.155 ± 1
7,YENHGISDLSCIFTPYKV,inactive
8,YFAVDDNYLHIQTSVRSRCS,0.036 ± 0.41
9,YFAVWSSRDTFRFYLILINP,-0.427 ± 0.33
10,YFEFSIHSQRYIQWSHYLVL,-1.05 ± 1.7
11,YFGLRSVKRWQT,-0.106 ± 0.52
12,YFGSLYERGRIIGRRVMR,0.267 ± 0.32
13,YFIARREQFWIMLPGELALE,-0.756 ± 1.7
14,YFIFFLSNVFASSVIILMYM,-0.071 ± 0.36
15,YFISVVFASGKGW,-0.387 ± 0.8
16,YFLLPYADRIHHLSVNCFWM,-0.008 ± 0.93
17,YFMFSLCSYSNYWLRWGFV,0.121 ± 0.22
18,YFPGVSRGQVDEPVYLCCQR,0.068 ± 0.57
19,YFRSSGGAFFGNLDVCGNYV,0.124 ± 0.48
20,YFSFIWMYKMDIMTI,-0.117 ± 0.35
21,YFSSYFV,0.118 ± 0.41
22,YFSVGSCNRYLHWTVQ,5.06 ± 0.075
23,YFSWLFPFIDLSRVSASMPT,2.69 ± 0.2
24,YFTLFDSRKTVLRSENNTRW,0.578 ± 0.32
25,YFVHQNKHRTKIIILGLGLI,1.35 ± 0.5

row,Substance,amyloid nucleation score
1,YFVLALWFIGCYECLYLWLC,1.21 ± 0.59
2,YFVMGLIFGLKRLLVLAIRR,-0.53 ± 0.3
3,YFWMIPMTGEVHNCPDLAPK,0.386 ± 0.33
4,YGASI,0.136 ± 0.47
5,YGDDRWYIRSIIEDCQLGGF,-0.716 ± 0.5
6,YGFLNPTSSR,0.632 ± 0.5
7,YGLIGM,0.24 ± 0.37
8,YGNKTYFAPR,0.557 ± 0.51
9,YGSGPNDWLYVWGNSLWQKV,-0.106 ± 0.66
10,YGVCT,0.49 ± 0.22
11,YGVVYNIWHFIEMKGDYTHA,6.869 ± 0.055
12,YHDVRLMVRVHVFWLF,1.03 ± 0.37
13,YHIRVAWQFVGADI,-0.535 ± 1
14,YHPRTSYFCDVVFRGPERGN,1.87 ± 0.69
15,YHSKLFVGGYWLYREDGREY,0.812 ± 0.24
16,YHVDC,-0.13 ± 0.34
17,YHVSLLSI,0.169 ± 0.65
18,YIDKG,-0.893 ± 1.9
19,YIDSLISLITDSCMNHRDGR,-0.29 ± 1.1
20,YILGVRSSYSMFMESQCL,0.543 ± 0.23
21,YILNGVPVKAFFLGYGADYS,-0.979 ± 1.3
22,YIMILSYAVNKSYFTRLSCN,-0.459 ± 0.67
23,YINTGVLYFGFCGL,7.117 ± 0.06
24,YITAWEWVQRRVV,2.46 ± 0.18
25,YKATRRRQLLSPVIGEDQIG,0.208 ± 0.32

row,Substance,amyloid nucleation score
1,YKDIMHHVN,inactive
2,YKGMSAHFGLILFDCCLNGS,7.516 ± 0.067
3,YKGYYCGSDDFPDSEKPEDG,-0.256 ± 0.32
4,YKIVIKSGQSAN,-0.252 ± 0.28
5,YKLKFIRGACHSS,0.9 ± 0.63
6,YKSLLGRAVMFKRHQPGPRA,0.248 ± 0.39
7,YLCQRHSFTRSRYHFLLRPV,-1.02 ± 1.2
8,YLCRLDLTTDRKSTGLLCGC,0.022 ± 0.34
9,YLCRRT,0.675 ± 0.63
10,YLDGTNSMNAEGNLLNKAPV,0.189 ± 0.31
11,YLDRSRLMIKCHVHVKYVYY,7.92 ± 0.048
12,YLDSSFFCFLVAIKMDDARH,6.08 ± 0.087
13,YLERIGATYMGG,0.601 ± 0.4
14,YLFSFWFPRYRHVIFIGYTL,0.531 ± 0.53
15,YLINLRFCEREAGFNFLLGR,-1.12 ± 2.7
16,YLIYVMPADVMAYWYCFT,-0.379 ± 0.61
17,YLLCFWILCFTAVGIFTGFN,0.456 ± 0.25
18,YLLCMGMVFSIGKFSSIPCP,inactive
19,YLQVGASADWKLTYSGSGNV,2.72 ± 0.23
20,YLSMFVWTGGNM,2.08 ± 0.31
21,YLTWYNRYCVRYITNYHPMK,5.96 ± 0.079
22,YLWILDMAREDELHATCSGE,-0.558 ± 0.66
23,YLWVIATLQFEV,-0.783 ± 0.63
24,YMCTLRGGGSDCTWAYPKWG,0.275 ± 0.48
